In patent US20150125444A1 (AstraZeneca / MedImmune, published 2015):

What was measured:
[1] = molecular target: T1, Human FcγRIIa extracellular domain (human, UniProt P12318 34-217); assay: SPR (ProteOn XPR36), antibody immobilised, steady state, pH 7.4
T1 construct: extracellular domain
T1 sequence (looked up): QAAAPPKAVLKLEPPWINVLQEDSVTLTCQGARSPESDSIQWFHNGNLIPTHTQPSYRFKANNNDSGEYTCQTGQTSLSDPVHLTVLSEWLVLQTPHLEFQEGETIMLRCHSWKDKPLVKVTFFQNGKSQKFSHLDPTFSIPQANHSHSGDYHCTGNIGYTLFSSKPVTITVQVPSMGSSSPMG
Procedure: (§1) Experiments were performed using the ProteOn XPR36 surface plasmon resonance system (Bio Rad). Phosphate buffered saline with 0.005% Tween 20 (PBS/Tween), pH 7.4 was used as running buffer for most experiments with the exception of Human FcRn (extracellular domain) binding in which Phosphate buffered saline with 0.005% Tween 20 (PBS/Tween), pH 6.0 was used. All experiments were performed at 25° C. Antibodies were immobilized on a ProteOn™ GLC Sensor Chip (#176-5011) using EDAC (1-Ethyl-3-[3-dimethylaminopropyl]carbodiimide) and sulfo-NHS (N-hydroxysulfosuccinimide) to an R.U. (response unit) level of 4000-6000. C1q, FcγRI, FcγRIIa, FcγRIIb, FcγRIII(158V), FcγRIII(158F), and FcRn were then flowed over the IgG immobilized surface at various concentrations at a rate of 25 μl/minute for a long enough period of time to achieve steady state, or near steady state. Binding (if any could be determined) was quantified via steady state equilibrium binding analysis using the ProteOn software. Human FcγRI, FcγRIIa, FcγRIIb, FcγRIII(158V), FcγRIII(158F), and FcRn extracellular domains were generated via mammalian expression vectors in house. Human C1q was obtained from Quidel (CA).

[2] = molecular target: T2, Human FcγRIIIa (158F) extracellular domain (human, UniProt P08637 17-208); assay: as above
T2 construct: extracellular domain; also called FcγRIII(158F)
T2 sequence (P08637 17-208): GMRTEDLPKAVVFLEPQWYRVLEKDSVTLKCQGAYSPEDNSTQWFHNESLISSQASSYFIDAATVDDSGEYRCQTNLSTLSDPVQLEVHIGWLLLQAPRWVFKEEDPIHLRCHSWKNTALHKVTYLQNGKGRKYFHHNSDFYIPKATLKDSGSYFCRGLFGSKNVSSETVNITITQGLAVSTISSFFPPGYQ
Procedure: as §1

[3] = molecular target: T3, Human FcγRIIb extracellular domain (human, UniProt P31994 43-217); assay: as above
T3 construct: extracellular domain
T3 sequence (looked up): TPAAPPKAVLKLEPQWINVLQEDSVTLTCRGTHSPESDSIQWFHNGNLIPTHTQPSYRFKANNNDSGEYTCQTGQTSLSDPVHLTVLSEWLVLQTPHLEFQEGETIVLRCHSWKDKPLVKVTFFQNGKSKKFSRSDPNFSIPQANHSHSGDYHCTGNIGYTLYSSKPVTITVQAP
Procedure: as §1

[4] = molecular target: T4, Human FcγRIIIa (158V) extracellular domain (human, UniProt P08637 17-208); assay: as above
T4 construct: extracellular domain; Position 158 is the usual allotype numbering (mature protein), not the precursor numbering of the database entry; also called FcγRIII(158V)
T4 sequence (P08637 17-208 F176V): as the sequence (P08637 17-208) above, with F160V counted along it
Procedure: as §1

[5] = molecular target: T5, Human FcγRIa extracellular domain (human, UniProt P12314 16-292); assay: as above
T5 construct: extracellular domain
T5 sequence (P12314 16-292): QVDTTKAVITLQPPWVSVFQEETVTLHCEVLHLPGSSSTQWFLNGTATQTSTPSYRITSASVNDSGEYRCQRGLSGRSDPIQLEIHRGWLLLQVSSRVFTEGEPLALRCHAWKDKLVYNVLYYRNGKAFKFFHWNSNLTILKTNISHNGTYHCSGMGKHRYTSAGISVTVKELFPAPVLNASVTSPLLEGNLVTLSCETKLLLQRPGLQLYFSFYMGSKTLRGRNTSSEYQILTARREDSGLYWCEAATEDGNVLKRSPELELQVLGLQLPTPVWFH
Procedure: as §1

Human C1q = molecular target: T6, Human C1q (human, UniProt P02745 23-245; P02746 28-253; P02747 29-245); assay: as above
T6 construct: Bought complement protein; In the CDC assay C1q came with human serum
T6 sequence (P02745 23-245 limits assumed, chain 1 of 3): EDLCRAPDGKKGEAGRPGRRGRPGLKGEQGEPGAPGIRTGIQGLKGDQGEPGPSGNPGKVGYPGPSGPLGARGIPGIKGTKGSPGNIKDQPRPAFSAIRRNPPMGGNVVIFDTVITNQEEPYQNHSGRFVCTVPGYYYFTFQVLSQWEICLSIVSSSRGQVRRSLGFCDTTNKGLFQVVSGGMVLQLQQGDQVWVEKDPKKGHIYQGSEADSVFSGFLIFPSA
T6 sequence (P02746 28-253 limits assumed, chain 2 of 3): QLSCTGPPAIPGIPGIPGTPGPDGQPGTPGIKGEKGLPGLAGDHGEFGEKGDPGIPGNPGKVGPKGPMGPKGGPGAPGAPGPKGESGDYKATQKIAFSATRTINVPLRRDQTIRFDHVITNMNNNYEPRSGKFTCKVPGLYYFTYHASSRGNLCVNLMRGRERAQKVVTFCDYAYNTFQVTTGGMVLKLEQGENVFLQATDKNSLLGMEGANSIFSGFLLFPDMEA
T6 sequence (P02747 29-245 limits assumed, chain 3 of 3): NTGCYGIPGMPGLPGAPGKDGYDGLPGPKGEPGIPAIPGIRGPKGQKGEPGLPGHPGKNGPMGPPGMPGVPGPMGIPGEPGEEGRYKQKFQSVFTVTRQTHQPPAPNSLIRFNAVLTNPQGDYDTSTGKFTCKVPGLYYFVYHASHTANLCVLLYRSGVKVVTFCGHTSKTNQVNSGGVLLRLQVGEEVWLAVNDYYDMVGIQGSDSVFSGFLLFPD
Procedure: as §1

[6] = molecular target: Human FcRn (extracellular domain) (human, UniProt P55899 24-297); assay: SPR (ProteOn XPR36), antibody immobilised, steady state, pH 6.0
Chain of Human FcRn (extracellular domain) (P55899 24-297): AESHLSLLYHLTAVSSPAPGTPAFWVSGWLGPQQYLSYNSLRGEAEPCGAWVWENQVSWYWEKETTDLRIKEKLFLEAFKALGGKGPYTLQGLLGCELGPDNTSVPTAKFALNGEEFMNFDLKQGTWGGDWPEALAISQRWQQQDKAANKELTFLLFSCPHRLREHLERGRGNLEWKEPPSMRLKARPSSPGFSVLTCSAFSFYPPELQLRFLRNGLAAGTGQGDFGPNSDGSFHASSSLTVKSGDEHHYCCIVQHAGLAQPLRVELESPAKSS
Procedure: as §1

| Binder | binding result [1] | binding result [2] | binding result [3] | binding result [4] | binding result [5] | binding result (Human C1q) | Kd [6] | Kd [1] | Kd [2] | Kd [3] | Kd [4] | Kd [5] | Kd (Human C1q) |
| --- | --- | --- | --- | --- | --- | --- | --- | --- | --- | --- | --- | --- | --- |
| Ab4 (anti-C5a antibody 1B8) with FQQ-YTE variant IgG1 Fc domain (antibody, Full IgG1; also called Ab4 FQQ-YTE) heavy: EVQLLESGGGLVQPGGSLRLSCAASGFTFSSYVMNWVRQAPGKGLEWVSSISPSGGRTWYADSVKGRFTISRDNSKNTLYLQMNSLRAEDTAVYYCARSDGSAAGFLGYWGQGTLVTVSSASTKGPSVFPLAPSSKSTSGGTAALGCLVKDYFPEPVTVSWNSGALTSGVHTFPAVLQSSGLYSLSSVVTVPSSSLGTQTYICNVNHKPSNTKVDKRVEPKSCDKTHTCPPCPAPEFQGGPSVFLFPPKPKDTLYITREPEVTCVVVDVSHEDPEVKFNWYVDGVEVHNAKTKPREEQYNSTYRVVSVLTVLHQDWLNGKEYKCQVSNKALPAPIEKTISKAKGQPREPQVYTLPPSREEMTKNQVSLTCLVKGFYPSDIAVEWESNGQPENNYKTTPPVLDSDGSFFLYSKLTVDKSRWQQGNVFSCSVMHEALHNHYTQKSLSLSPGK light: QSALTQPPSASGTPGQRVTISCSGTNSNIGSNYVFWYQQLPGTAPKLLIFESNRRPSGVPDRFSGSKSDTSASLAISGLRSEDEADYYCATWDDTLIAPVFGSGTKVTVLGQPKANPTVTLFPPSSEELQANKATLVCLISDFYPGAVTVAWKADSSPVKAGVETTTPSKQSNNKYAASSYLSLTPEQWKSHRSYSCQVTHEGSTVEKTVAPAEC | no binding | no binding | no binding | no binding | no binding | no binding | 290 nM |  |  |  |  |  |  |
| Ab4 (anti-C5a antibody 1B8) with YTE variant IgG1 Fc domain (antibody, Full IgG1; also called Ab4 YTE) heavy: EVQLLESGGGLVQPGGSLRLSCAASGFTFSSYVMNWVRQAPGKGLEWVSSISPSGGRTWYADSVKGRFTISRDNSKNTLYLQMNSLRAEDTAVYYCARSDGSAAGFLGYWGQGTLVTVSSASTKGPSVFPLAPSSKSTSGGTAALGCLVKDYFPEPVTVSWNSGALTSGVHTFPAVLQSSGLYSLSSVVTVPSSSLGTQTYICNVNHKPSNTKVDKRVEPKSCDKTHTCPPCPAPELLGGPSVFLFPPKPKDTLYITREPEVTCVVVDVSHEDPEVKFNWYVDGVEVHNAKTKPREEQYNSTYRVVSVLTVLHQDWLNGKEYKCKVSNKALPAPIEKTISKAKGQPREPQVYTLPPSREEMTKNQVSLTCLVKGFYPSDIAVEWESNGQPENNYKTTPPVLDSDGSFFLYSKLTVDKSRWQQGNVFSCSVMHEALHNHYTQKSLSLSPGK light: QSALTQPPSASGTPGQRVTISCSGTNSNIGSNYVFWYQQLPGTAPKLLIFESNRRPSGVPDRFSGSKSDTSASLAISGLRSEDEADYYCATWDDTLIAPVFGSGTKVTVLGQPKANPTVTLFPPSSEELQANKATLVCLISDFYPGAVTVAWKADSSPVKAGVETTTPSKQSNNKYAASSYLSLTPEQWKSHRSYSCQVTHEGSTVEKTVAPAEC |  |  |  |  |  |  | 270 nM | 1900 nM | 2800 nM | 3600 nM | 820 nM | 43 nM | 400 nM |
